Measured values reported in FireProtDB (doi:10.1002/prot.1147).

B1: Lysozyme C, P61626 (parent)
chain: MKALIVLGLVLLSVTVQGKVFERCELARTLKRLGMDGYRGISLANWMCLAKWESGYNTRATNYNAGDRSTDYGIFQINSRYWCNDGKTPGAVNACHLSCSALLQDNIADAVACAKRVVRDPQGIRAWVAWRNRCQNRDVRQYVQGCGV

Variants of: B1
Conditions: Homo sapiens; pH 2.2; Thermal; DSC; Gly-HCl 0.05 M; reversible: yes; structure 1LZ1; whole UniProt chain shown

| Variant | Tm | unfolding enthalpy (calorimetric) |
| --- | --- | --- |
| MKALIVLGLVLLSVTVQGKVFERCELARTLKRLGMDGYRGISLANWMCLAKWESGYNTRATNYNAGDRSTDYGIFQINSRYWCNDGKTPGAVNACHLSCSALLQDNIADAVACAKRVVRDPQGIRAWVAWRNRCQNRDVRQYVQACGV | 54.6 °C | 394 kJ/mol |

Same assay, conditions: Homo sapiens; pH 2.6; Thermal; DSC; Gly-HCl 0.05 M; reversible: yes; structure 1LZ1; whole UniProt chain shown

| Variant | Tm | unfolding enthalpy (calorimetric) |
| --- | --- | --- |
| MKALIVLGLVLLSVTVQGKVFERCELARTLKRLGMDGYRGISLANWMCLAKWESGYNTRATNYNAGDRSTDYGIFQINSRYWCNDGKTPGAVNACHLSCSALLQDNIADAVACAKRVVRDPQGIRAWVAWRNRCQNRDVRQYVQACGV | 61.6 °C | 435 kJ/mol |

Same assay, conditions: Homo sapiens; pH 3.16; Thermal; DSC; Gly-HCl 0.05 M; reversible: yes; structure 1LZ1; whole UniProt chain shown

| Variant | Tm | unfolding enthalpy (calorimetric) |
| --- | --- | --- |
| MKALIVLGLVLLSVTVQGKVFERCELARTLKRLGMDGYRGISLANWMCLAKWESGYNTRATNYNAGDRSTDYGIFQINSRYWCNDGKTPGAVNACHLSCSALLQDNIADAVACAKRVVRDPQGIRAWVAWRNRCQNRDVRQYVQACGV | 71.1 °C | 494 kJ/mol |
| MKALIVLGLVLLSVTVQGKVFERCELARTLKRLGMDGYRGISLANWMCLAKWESGYNTRATNYNAGDRSTDYGIFQINSRYWCNDGKTPAAVNACHLSCSALLQDNIADAVACAKRVVRDPQGIRAWVAWRNRCQNRDVRQYVQGCGV | 72.2 °C | 502 kJ/mol |

Same assay, conditions: Homo sapiens; pH 2.4; Thermal; DSC; Gly-HCl 0.05 M; reversible: yes; structure 1LZ1; whole UniProt chain shown

| Variant | Tm | unfolding enthalpy (calorimetric) |
| --- | --- | --- |
| MKALIVLGLVLLSVTVQGKVFERCELARTLKRLGMDGYRGISLANWMCLAKWESGYNTRATNYNAADRSTDYGIFQINSRYWCNDGKTPGAVNACHLSCSALLQDNIADAVACAKRVVRDPQGIRAWVAWRNRCQNRDVRQYVQGCGV | 61.1 °C | 397 kJ/mol |

Same assay, conditions: Homo sapiens; pH 2.68; Thermal; DSC; Gly-HCl 0.05 M; reversible: yes; structure 1LZ1; whole UniProt chain shown

| Variant | Tm | unfolding enthalpy (calorimetric) |
| --- | --- | --- |
| MKALIVLGLVLLSVTVQGKVFERCELARTLKRLGMDGYRGISLANWMCLAKWESGYNTRATNYNAADRSTDYGIFQINSRYWCNDGKTPGAVNACHLSCSALLQDNIADAVACAKRVVRDPQGIRAWVAWRNRCQNRDVRQYVQGCGV | 66 °C | 427 kJ/mol |

Same assay, conditions: Homo sapiens; pH 2.7; 64.9 °C; Thermal; DSC; Gly-HCl 0.05 M; reversible: yes; structure 1LZ1; whole UniProt chain shown

| Variant | ddG of mutation (higher = less stable) | heat capacity change of unfolding |
| --- | --- | --- |
| MKALIVLGLVLLSVTVQGKVFERCELARTLKRLGMDGYRGISLANWMCLAKWESGYNTRATNYNAADRSTDYGIFQINSRYWCNDGKTPGAVNACHLSCSALLQDNIADAVACAKRVVRDPQGIRAWVAWRNRCQNRDVRQYVQGCGV | -1.88 kJ/mol | 1.6 kcal/mol/K |
| MKALIVLGLVLLSVTVQGKVFERCELARTLKRLGMDGYRGISLANWMCLAKWESGYNTRATNYNAGDRSTDYGIFQINSRYWCNDGKTPGAVNACHLSCSALLQDNIADAVACAKRVVRDPQAIRAWVAWRNRCQNRDVRQYVQGCGV | 2.59 kJ/mol | 1.36 kcal/mol/K |
| MKALIVLGLVLLSVTVQGKVFERCELARTLKRLGMDGYRGISLANWMCLAKWESGYNTRATNYNAGDRSTDYGIFQINSRYWCNDGKTPAAVNACHLSCSALLQDNIADAVACAKRVVRDPQGIRAWVAWRNRCQNRDVRQYVQGCGV | 1.51 kJ/mol | 1.43 kcal/mol/K |

Same assay, conditions: Homo sapiens; pH 2.7; Thermal; DSC; Gly-HCl 0.05 M; reversible: yes; structure 1LZ1; whole UniProt chain shown

| Variant | Tm | change of melting temperature, mutant - wild type (higher = more stable) | heat capacity change of unfolding | unfolding enthalpy (calorimetric) |
| --- | --- | --- | --- | --- |
| MKALIVLGLVLLSVTVQGKVFERCELARTLKRLGMDGYRGISLANWMCLAKWESGYNTRATNYNAADRSTDYGIFQINSRYWCNDGKTPGAVNACHLSCSALLQDNIADAVACAKRVVRDPQGIRAWVAWRNRCQNRDVRQYVQGCGV | 66.4 °C | 1.5 °C | 1.6 kcal/mol/K | 421 kJ/mol |
| MKALIVLGLVLLSVTVQGKVFERCELARTLKRLGMDGYRGISLANWMCLAKWESGYNTRATNYNAGDRSTDYGIFQINSRYWCNDGKTPGAVNACHLSCSALLQDNIADAVACAKRVVRDPQAIRAWVAWRNRCQNRDVRQYVQGCGV | 62.8 °C | -2.1 °C | 1.36 kcal/mol/K | 429 kJ/mol |
| MKALIVLGLVLLSVTVQGKVFERCELARTLKRLGMDGYRGISLANWMCLAKWESGYNTRATNYNAGDRSTDYGIFQINSRYWCNDGKTPAAVNACHLSCSALLQDNIADAVACAKRVVRDPQGIRAWVAWRNRCQNRDVRQYVQGCGV | 63.8 °C | -1.1 °C | 1.43 kcal/mol/K | 458 kJ/mol |

Same assay, conditions: Homo sapiens; pH 3.2; Thermal; DSC; Gly-HCl 0.05 M; reversible: yes; structure 1LZ1; whole UniProt chain shown

| Variant | Tm | unfolding enthalpy (calorimetric) |
| --- | --- | --- |
| MKALIVLGLVLLSVTVQGKVFERCELARTLKRLGMDGYRGISLANWMCLAKWESGYNTRATNYNAADRSTDYGIFQINSRYWCNDGKTPGAVNACHLSCSALLQDNIADAVACAKRVVRDPQGIRAWVAWRNRCQNRDVRQYVQGCGV | 75.1 °C | 490 kJ/mol |
| MKALIVLGLVLLSVTVQGKVFERCELARTLKRLGMDGYRGISLANWMCLAKWESGYNTRATNYNAGDRSTDYGIFQINSRYWCNDGKTPGAVNACHLSCSALLQDNIADAVACAKRVVRDPQAIRAWVAWRNRCQNRDVRQYVQGCGV | 71.8 °C | 469 kJ/mol |

Same assay, conditions: Homo sapiens; pH 2.3; Thermal; DSC; Gly-HCl 0.05 M; reversible: yes; structure 1LZ1; whole UniProt chain shown

| Variant | Tm | unfolding enthalpy (calorimetric) |
| --- | --- | --- |
| MKALIVLGLVLLSVTVQGKVFERCELARTLKRLGMDGYRGISLANWMCLAKWESGYNTRATNYNAGDRSTDYGIFQINSRYWCNDGKTPGAVNACHLSCSALLQDNIADAVACAKRVVRDPQAIRAWVAWRNRCQNRDVRQYVQGCGV | 56.1 °C | 380 kJ/mol |

Same assay, conditions: Homo sapiens; pH 2.65; Thermal; DSC; Gly-HCl 0.05 M; reversible: yes; structure 1LZ1; whole UniProt chain shown

| Variant | Tm | unfolding enthalpy (calorimetric) |
| --- | --- | --- |
| MKALIVLGLVLLSVTVQGKVFERCELARTLKRLGMDGYRGISLANWMCLAKWESGYNTRATNYNAGDRSTDYGIFQINSRYWCNDGKTPGAVNACHLSCSALLQDNIADAVACAKRVVRDPQAIRAWVAWRNRCQNRDVRQYVQGCGV | 61.3 °C | 408 kJ/mol |

Same assay, conditions: Homo sapiens; pH 2.38; Thermal; DSC; Gly-HCl 0.05 M; reversible: yes; structure 1LZ1; whole UniProt chain shown

| Variant | Tm | unfolding enthalpy (calorimetric) |
| --- | --- | --- |
| MKALIVLGLVLLSVTVQGKVFERCELARTLKRLGMDGYRGISLANWMCLAKWESGYNTRATNYNAGDRSTDYGIFQINSRYWCNDGKTPAAVNACHLSCSALLQDNIADAVACAKRVVRDPQGIRAWVAWRNRCQNRDVRQYVQGCGV | 58.2 °C | 418 kJ/mol |

Same assay, conditions: Homo sapiens; pH 2.64; Thermal; DSC; Gly-HCl 0.05 M; reversible: yes; structure 1LZ1; whole UniProt chain shown

| Variant | Tm | unfolding enthalpy (calorimetric) |
| --- | --- | --- |
| MKALIVLGLVLLSVTVQGKVFERCELARTLKRLGMDGYRGISLANWMCLAKWESGYNTRATNYNAGDRSTDYGIFQINSRYWCNDGKTPAAVNACHLSCSALLQDNIADAVACAKRVVRDPQGIRAWVAWRNRCQNRDVRQYVQGCGV | 62.6 °C | 444 kJ/mol |
